Our source for the koff, time constant of membrane on-times (τs) and time constant of membrane on-times (τu) values is publication PMC5027577.

For assay [1], the target named is T1, TGF-β type I receptor (TRI) (human (endogenous in HeLa)), P36897.
T1 chain: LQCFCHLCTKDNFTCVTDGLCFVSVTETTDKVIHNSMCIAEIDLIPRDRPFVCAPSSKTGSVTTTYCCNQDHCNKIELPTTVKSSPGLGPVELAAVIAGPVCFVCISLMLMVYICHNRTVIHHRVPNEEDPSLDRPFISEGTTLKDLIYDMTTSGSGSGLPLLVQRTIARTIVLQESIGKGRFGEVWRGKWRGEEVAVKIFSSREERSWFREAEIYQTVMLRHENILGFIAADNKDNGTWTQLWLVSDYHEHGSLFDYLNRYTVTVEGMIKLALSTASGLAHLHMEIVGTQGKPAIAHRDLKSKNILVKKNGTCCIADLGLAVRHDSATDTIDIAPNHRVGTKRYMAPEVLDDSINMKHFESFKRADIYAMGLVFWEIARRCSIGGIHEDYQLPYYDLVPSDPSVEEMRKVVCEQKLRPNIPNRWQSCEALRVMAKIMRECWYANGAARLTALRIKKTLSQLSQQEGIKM
Nature of the assay: live-cell single-molecule TIRFM tracking (membrane on-times); EGFP-Smad3 or EGFP-M-Smad3 at low expression in living HeLa cells treated with 10 ng/ml TGF-β1 for 15 min at 37 °C; 10 Hz; cumulative histograms of on-times fitted with a single exponential. The settings on record: remark: other sources report otherwise.

The target in assay [2] is T1, TGF-β type I receptor (TRI) (human …). The experiment in a line: live-cell single-molecule TIRFM tracking (membrane on-times); EGFP-Smad3 or EGFP-M-Smad3 at low expression in living HeLa cells, unstimulated; 10 Hz; cumulative histograms of on-times fitted with a single exponential. The settings on record: remark: other sources report otherwise.

B1: EGFP-Smad3, P84022 1-425 (natural protein)
chain: MSSILPFTPPIVKRLLGWKKGEQNGQEEKWCEKAVKSLVKKLKKTGQLDELEKAITTQNVNTKCITIPRSLDGRLQVSHRKGLPHVIYCRLWRWPDLHSHHELRAMELCEFAFNMKKDEVCVNPYHYQRVETPVLPPVLVPRHTEIPAEFPPLDDYSHSIPENTNFPAGIEPQSNIPETPPPGYLSEDGETSDHQMNHSMDAGSPNLSPNPMSPAHNNLDLQPVTYCEPAFWCSISYYELNQRVGETFHASQPSMTVDGFTDPSNSERFCLGLLSNVNRNAAVELTRRHIGRGVRLYYIGGEVFAECLSDSAIFVQSPNCNQRYGWHPATVCKIPPGCNLKIFNNQEFAALLAQSVNQGFEAVYQLTRMCTIRMSFVKGWGAEYRRQTVTSTPCWIELHLNGPLQWLDKVLTQMGSPSIRCSSVS
Regarding B1, in assay [1], the koff is 1.67 s⁻¹ and the time constant of membrane on-times (τs) was determined as 0.6 s. In assay [2], the koff is 1.96 s⁻¹ and the time constant of membrane on-times (τu) came out at 0.51 s.
